Test results reported in patent US5102995A, “DNA encoding modified heparin cofactor II” (Washington University, priority 1989, dated 1992).
Residue numbers refer to the chain shown, from its start.

B1: rHCII(Leu444 →Arg): modified heparin cofactor II: leucine at position 444 replaced by arginine in the 480 amino acid sequence; expressed in E. coli (protein, UniProt P05546 20-499, looked up, variant L444R)
Heparin cofactor 2: GSKGPLDQLEKGGETAQSADPQWEQLNNKNLSMPLLPADFHKENTVTNDWIPEGEEDDDYLDLEKIFSEDDDYIDIVDSLSVSPTDSDVSAGNILQLFHGKSRIQRLNILNAKFAFNLYRVLKDQVNTFDNIFIAPVGISTAMGMISLGLKGETHEQVHSILHFKDFVNASSKYEITTIHNLFRKLTHRLFRRNFGYTLRSVNDLYIQKQFPILLDFKTKVREYYFAEAQIADFSDPAFISKTNNHIMKLTKGLIKDALENIDPATQMMILNCIYFKGSWVNKFPVEMTHNHNFRLNEREVVKVSMMQTKGNFLAANDQELDCDILQLEYVGGISMLIVVPHKMSGMKTLEAQLTPRVVERWQKSMTNRTREVLLPKFKLEKNYNLVESLKLMGIRMLFDKNGNMAGISDQRIAIDLFKHQGTITVNEEGTQATTVTTVGFMPRSTQVRFTVDRPFLFLIYEHRTSCLLFMGRVANPSRS
modifications: expressed in E. coli
B2: native rHCII: recombinant native heparin cofactor II expressed in E. coli; amino acid sequence identical to HCII purified from human plasma (protein, UniProt P05546 20-499, looked up)
Heparin cofactor 2: B1 Heparin cofactor 2 with R444L
B3: HCII: heparin cofactor II, a 65,600 dalton plasma glycoprotein, serpin that inhibits thrombin (protein, UniProt P05546 20-499, looked up)
Heparin cofactor 2: B1 Heparin cofactor 2 with R444L

Columns and labels:
thrombin [1] = experiment: Inhibition of thrombin by rHCII (chromogenic substrate Chromozym TH); format: biochemical, human; conditions: for Second-order rate constant (k2) for inhibition of thrombin: No GAG, thrombin 15 nM, room temperature; for Increase in the rate constant for thrombin inhibition produced by dermatan sulfate: dermatan sulfate vs no GAG; for Increase in the rate constant for thrombin inhibition produced by heparin: heparin vs no GAG; for Maximum rate constant of thrombin inhibition relative to native HCII: in the presence of dermatan sulfate
Method: (§1) Materials--Chromogenic substrates were purchased from the following sources: tosyl-Gly-Pro-Arg-p-nitroanilide (Chromozym TH), Boehringer Mannheim; N-succinyl-Ala-Ala-Pro-Phe-p-nitroanilde, Sigma; methoxycarbonyl cyclohexylglycyl-Gly-Arg-p-nitroanilde (Spectrozyme FXa), American Diagnostica; and Pro-Phe-Arg-p-nitroanilide (S-2302), KabiVitrum. Thrombin and HCII derived from human plasma were prepared and assayed by conventional procedures as previously described by Blinder et al., J. Biol. Chem. 264, 5128-5133 (1989). Human coagulation factor Xa was provided by Dr. George Broze, Jr., Washington University, St. Louis, Mo. Human chymotrypsin and plasma kallikrein were purchased from Sigma. Affinity purified rabbit anti-HCII antibodies were prepared and labeled with Na[^125 I] by conventional procedure as described previously by Blinder et al., Biochemistry 27, 752-759 (1988). Bovine lung heparin and porcine skin dermatan sulfate were purchased from Sigma; the dermatan sulfate was treated with nitrous acid to remove contaminating heparin prior to use [Teien et al., Thromb. Res. 8, 859-867 (1976)]. Heparin-Sepharose was prepared by commonly known procedure as described previously by Tollefsen et al., J. Biol. Chem. 257, 2162-2169 (1982).
(§2) Inhibition of proteases by rHCII--Protease inhibition by rHCII was determined by incubating 90 μl of the partially purified rHCII (or the corresponding heparin-Sepharose fractions of a control lysate from cells transformed with pMON-5840) with 5 μl of the protease and 5 μl of either glycosaminoglycan or water in a disposable polystyrene cuvette at room temperature. Final concentrations of the proteases were as follows: thrombin, 15 nM; chymotrypsin, 21 nM; factor Xa, 16 nM; and kallikrein, 10 nM. After a specified period of time from 5 seconds (s) to 150 min, 300-500 μl of the appropriate chromogenic substrate was added, and the absorbance at 405 nm was recorded continuously for 100 s. The rate of change of absorbance was proportional to the concentration of active protease remaining in the incubation. The amounts added and concentrations of each substrate were as follows: Chromozym TH (thrombin), 500 μl, 0.1 mM; N-succinyl-Ala-Ala-Pro-Phe-p-nitroanilde (chymovtrypsin), 300 μl, 0.5 mM; Spectrozyme FXa (factor Xa), 400 μl, 0.125 mM; and S-2302 (kallikrein), 300 μl, 0.4 mM.
(§3) Protease inhibition by rHCII in the absence of a glycosaminoglycan--The time courses of inhibition of thrombin, factor Xa, kallikrein, and chymotrypsin by […] rHCII(Leu444 →Arg) in the absence of a glycosaminoglycan are indicated in FIG. 3. The incubations were performed under pseudo-first-order conditions, such that the initial concentration of rHCII was greater than the concentration of protease. The pseudo-first-order rate constants (k1) for protease inhibition were determined by fitting the data to the following equation: k1 t=ln([P]0 /[P]t), in which [P]0 =initial protease activity and [P]t =protease activity at time=t. The second-order rate constants (k2) were then calculated by dividing k1 by the initial rHCII concentration. It was observed that rHCII(Leu444 →Arg) inhibits thrombin almost 100 times more rapidly than native rHCII in the absence of a glycosaminoglycan. Furthermore, rHCII(Leu444 →Arg) inhibits factor Xa and kallikrein, while inhibition of these proteases by native rHCII is undetectable.
Inhibition of thrombin by rHCII in the presence of dermatan sulfate or heparin--The time course of inhibition of thrombin was determined in the presence of various concentrations of dermatan sulfate or heparin.

factor Xa = experiment: Inhibition of factor Xa by rHCII (Spectrozyme FXa); format: biochemical, human; conditions: for Second-order rate constant (k2) for inhibition of factor Xa: No GAG, factor Xa 16 nM; for Inhibition of factor Xa (in words): absence of a glycosaminoglycan
Method: as §1, §2, §3

plasma kallikrein = experiment: Inhibition of kallikrein by rHCII (S-2302); format: biochemical, human; conditions: for Second-order rate constant (k2) for inhibition of kallikrein: No GAG, kallikrein 10 nM; for Inhibition of kallikrein (in words): absence of a glycosaminoglycan
Method: as §1, §2, §3

chymotrypsin = experiment: Inhibition of chymotrypsin by rHCII (chromogenic substrate); format: biochemical, human; conditions: for Second-order rate constant (k2) for inhibition of chymotrypsin: No GAG, chymotrypsin 21 nM; for Inhibition of chymotrypsin (in words): absence of a glycosaminoglycan
Method: as §1, §2, §3

thrombin [2] = conditions: literature; cited from earlier work

Molecule | Second-order rate constant (k2) for inhibition of thrombin (thrombin [1]) [M⁻¹ min⁻¹] | Increase in the rate constant for thrombin inhibition produced by dermatan sulfate (thrombin [1]) | Increase in the rate constant for thrombin inhibition produced by heparin (thrombin [1]) | Second-order rate constant (k2) for inhibition of factor Xa (factor Xa) [M⁻¹ min⁻¹] | Inhibition of factor Xa (in words) (factor Xa) | Second-order rate constant (k2) for inhibition of kallikrein (plasma kallikrein) [M⁻¹ min⁻¹] | Inhibition of kallikrein (in words) (plasma kallikrein) | Second-order rate constant (k2) for inhibition of chymotrypsin (chymotrypsin) [M⁻¹ min⁻¹] | further results
B1 | 6.2e+06 | much smaller effect | minimal effect | 44000 | inhibits | 130000 | inhibits | < 10000 | Second-order rate constant (k2) for inhibition of thrombin (thrombin [1]; listed as HCII(Leu444 →Arg)): 6.2e+06 M⁻¹ min⁻¹; Rate of thrombin inhibition relative to native HCII (thrombin [1]; absence of a glycosaminoglycan): ~100 fold; Maximum rate constant of thrombin inhibition relative to native HCII (thrombin [1]): about twice as fast; Maximum rate constant of thrombin inhibition relative to native HCII (thrombin [1]; listed as HCII(Leu444 →Arg)): 2 fold; Inhibition of factor Xa (in words) (factor Xa; listed as HCII(Leu444 →Arg)): inhibited more rapidly; Effect of dermatan sulfate on rate of inhibition of factor Xa (factor Xa; dermatan sulfate): nor does it increase; Effect of heparin on inhibition of factor Xa (factor Xa; heparin 100 μg/ml): appears to protect; Inhibition of kallikrein (in words) (plasma kallikrein; listed as HCII(Leu444 →Arg)): inhibited more rapidly; Effect of heparin on inhibition of kallikrein (plasma kallikrein; heparin 100 μg/ml): appears to protect; Inhibition of chymotrypsin (in words) (chymotrypsin): does not inhibit chymotrypsin at a detectable rate; Inhibition of chymotrypsin (in words) (chymotrypsin; listed as HCII(Leu444 →Arg)): more slowly
B2 | 63000 | ~3500 fold | about 40 fold | < 1000 | undetectable | < 3000 | undetectable | 220000 | Second-order rate constant (k2) for inhibition of thrombin (thrombin [1]; listed as native HCII): 63000 M⁻¹ min⁻¹; Effect of dermatan sulfate on rate of inhibition of chymotrypsin (chymotrypsin; dermatan sulfate): does not significantly increase
B3 |  |  |  |  |  |  |  |  | Increase of the rate of thrombin inhibition by heparin and dermatan sulfate (thrombin [2]): ~ 1000 fold
